Numbering of substitutions follows the chain as printed. Numbers in names are those of the source. * marks the point of attachment. FITC = O=C1OC2(c3ccc(O)cc3Oc3cc(O)ccc32)c2ccc(NC(=S)*)cc21; βAla = NCCC(=O)O
Assays:
[1] = target: T1, NorA (S. aureus quinolone efflux pump), C-terminal decahistidine tag, in PMAL-C8 amphipol (S. aureus, UniProt Q5HHX4 1-388); test: fluorescence polarisation
T1 sequence: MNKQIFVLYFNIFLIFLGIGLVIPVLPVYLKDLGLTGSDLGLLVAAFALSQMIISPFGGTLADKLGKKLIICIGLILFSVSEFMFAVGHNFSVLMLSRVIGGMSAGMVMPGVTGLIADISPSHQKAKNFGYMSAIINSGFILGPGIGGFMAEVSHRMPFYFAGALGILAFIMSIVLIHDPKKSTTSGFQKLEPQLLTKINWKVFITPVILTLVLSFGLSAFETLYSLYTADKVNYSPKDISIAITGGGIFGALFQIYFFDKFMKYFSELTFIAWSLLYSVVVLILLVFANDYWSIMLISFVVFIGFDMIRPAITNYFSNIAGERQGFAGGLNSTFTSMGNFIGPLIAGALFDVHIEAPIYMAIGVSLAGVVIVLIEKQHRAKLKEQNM

[2] = target: T2, NorA (S. aureus quinolone efflux pump), C-terminal decahistidine tag, in PMAL-C8 amphipol (S. aureus) (UniProt Q5HHX4); test: MST
T2 sequence: T1 sequence

[3] = target: NorA (S. aureus quinolone efflux pump), C-terminal decahistidine tag, in PMAL-C8 amphipol (S. aureus, UniProt Q5HHX4); test: MST

B1: FITC-NPI-1 (fluorescent analog of NPI-1) (peptide)
peptide: {FITC-βAla}-YYYYAWRVGGYWR-NH2
SMILES: CC(C)[C@H](NC(=O)[C@H](CCCNC(=N)N)NC(=O)[C@H](Cc1c[nH]c2ccccc12)NC(=O)[C@H](C)NC(=O)[C@H](Cc1ccc(O)cc1)NC(=O)[C@H](Cc1ccc(O)cc1)NC(=O)[C@H](Cc1ccc(O)cc1)NC(=O)[C@H](Cc1ccc(O)cc1)NC(=O)CCNC(=S)Nc1ccc2c(c1)C(=O)OC21c2ccc(O)cc2Oc2cc(O)ccc21)C(=O)NCC(=O)NCC(=O)N[C@@H](Cc1ccc(O)cc1)C(=O)N[C@@H](Cc1c[nH]c2ccccc12)C(=O)N[C@@H](CCCNC(=N)N)C(N)=O
B1 showed a Kd [1] of 0.01 µM.

B2: Fab36 R134A (CDRH3 mutant) (Fab, V domains shown)
VH: EVQLVESGGGLVQPGGSLRLSCAASGFTFSSSSIHWVRQAPGKGLEWVASISSSSGSTSYADSVKGRFTISADTSKNTAYLQMNSLRAEDTAVYYCARYSRYYYYAWAVGGYWGGLDYWGQGTLVTVFN
VL: DIQMTQSPSSLSASVGDRVTITCRASQSVSSAVAWYQQKPGKAPKLLIYSASSLYSGVPSRFSGSRSGTDFTLTISSLQPEDFATYYCQQSSSSLITFGQGTKVEIK
For B2, the Kd [2] was > 14 µM.

B3: Fab25 (synthetic antigen-binding fragment against NorA) (Fab, V domains shown)
VH: EVQLVESGGGLVQPGGSLRLSCAASGFTFSSSSIHWVRQAPGKGLEWVASISSSSGSTSYADSVKGRFTISADTSKNTAYLQMNSLRAEDTAVYYCARWETGYYPYWRMYGFYWALDYWGQGTLVTVFN
VL: B2 VL
In the case of B3, the Kd [3] is reported as 1.2 µM.

B4: Fab36 W133A (CDRH3 mutant) (Fab, V domains shown)
VH: B2 VH with W107A, A108R
VL: B2 VL
In the case of B4, the “fold reduction of binding affinity against Fab36” value [3] is reported as ~20 fold.

B5: Fab36 (synthetic antigen-binding fragment against NorA) (Fab, V domains shown)
VH: B2 VH with A108R
VL: B2 VL
B5 showed a Kd [3] of 0.14 µM.
